# From patent US20220160939A1, “SELF-ASSEMBLING PEPTIDES AS BRONCHIAL OBSTRUCTION AGENTS” (3-D MATRIX, LTD., priority 2014, published 2022)
# Experiments:
# Type in all cases: physicochemical
# [1] = pH and appearance of 2.5% peptide solutions after adding 0.1 N NaOH
# Experimental: To adjust the pH level of the peptide solutions by way of example, 0.1 N NaOH was added to 2 mL of 2.5% peptide solutions and their pH and appearance were measured.
# [2] = Appearance of 1.5% peptide solutions with various salts at room temperature; settings: for Appearance: room temperature
# Experimental: The effect of salt ionic strength level on the properties of peptide solutions was evaluated to identify optimized salt ionic strength levels for the peptides as described herein. Increasing the salt ionic strength level of PuraMatrix® (SEQ ID NO:1) and other peptides may generally improve its function and mechanical strength for various clinical applications. To adjust the salt ionic strength of the peptide solutions by way of example, various salt buffer solutions including NaCl, KCl, MgCl2, CaCl2 and DPBS (10×) were added to 2 mL of 1.5% peptide solutions.
# [3] = Rheological properties of pH adjusted peptide solutions
# Experimental: Based on the visual observation of the effect of pH level on the properties of the peptide solutions, the effect on the rheological properties of the peptide solutions after adjusting their pH level to 3.4 (PuraMatrix® (SEQ ID NO:1) and KLD12 (SEQ ID NO:3)) or 3.7 (IEIK13 (SEQ ID NO:2)) was evaluated. If the pH levels of peptide solutions are higher than 3.5 (PuraMatrix® (SEQ ID NO:1) and KLD12 (SEQ ID NO:3)) or 3.7 (IEIK13 (SEQ ID NO:2)), the peptide solution began phase separation becoming cloudy. The rheological properties of PuraMatrix® (SEQ ID NO:1), KLD12 (SEQ ID NO:3) and IEIK13 (SEQ ID NO:2) solutions were higher at pH 3.4. The results are shown in FIG. 2 for KLD12 (SEQ ID NO:3) 1%, FIG. 3 for IEIK13 (SEQ ID NO:2) 1%, and FIGS. 4-5 for PuraMatrix® (SEQ ID NO:1) 1% and 2.5%, respectively. Stress sweep tests were performed at 10 rad/s. Frequency sweep tests were performed at 1 Pa.
# Based on the results of the effect on the rheological properties of the peptide solutions after adjusting their pH level to 3.4 (PuraMatrix® (SEQ ID NO:1) and KLD12 (SEQ ID NO:3)) or 3.7 (IEIK13 (SEQ ID NO:2)), the effect on the rheological properties of the peptide solutions at various pH levels was evaluated. […] The rheological properties of peptides were evaluated at various concentrations using a rheometer (DHR-1, TA Instruments) with 20 mm plates. The results are shown in FIG. 6A for PuraMatrix® (SEQ ID NO:1) 2.5% solution and FIG. 6B for IEIK13 (SEQ ID NO:2) 1.5% solution, respectively. Frequency sweep tests were performed from 1 rad/sec to 10 rad/sec at 1 Pa and the storage modulus at 1 rad/sec was selected for data.
substance,measurement,setting,value
Ile-Glu-Ile-Lys-Ile-Glu-Ile-Lys-Ile-Glu-Ile-Lys-Ile [IEIK13],Appearance,"[1]; 0.1N NaOH 150 μL/mL added in 2.5% solution, conc. 2.17%","Clear, thick gel, stiffer gel"
same,Appearance,"[1]; 0.1N NaOH 200 μL/mL added in 2.5% solution, conc. 2.08%","Clear, thick gel, stiffer gel"
same,Appearance,"[1]; 0.1N NaOH 250 μL/mL added in 2.5% solution, conc. 2.0%","Clear, thick gel, stiffer gel"
same,Appearance,"[1]; 0.1N NaOH 275 μL/mL added in 2.5% solution, conc. 1.96%","Clear, thick, stiffer gel"
same,Appearance,"[1]; 0.1N NaOH 300 μL/mL added in 2.5% solution, conc. 1.92%","Slightly cloudy, brittle gel"
same,Appearance,"[1]; 0.1N NaOH 400 μL/mL added in 2.5% solution, conc. 1.79%","Cloudy, phase-separated"
same,Peptide solution pH,[1]; NaOH volume and conc. not given,7.0
same,Appearance,"[1]; peptide solution pH 7.0, NaOH volume and conc. not given","Cloudy, phase-separated"
same,critical salt ionic strengths at which peptides become cloudy,[2],0.03˜0.04 M
same,Appearance,"[2]; CaCl2 0 M, ionic strength 0 M, conc. 1.5%","Clear, thick gel"
same,Appearance,"[2]; CaCl2 0.005 M, ionic strength 0.015 M, conc. 1.46%","Clear, thick, stiffer gel"
same,Appearance,"[2]; CaCl2 0.0067 M, ionic strength 0.02 M, conc. 1.45%","Clear, thick, stiffer gel"
same,Appearance,"[2]; CaCl2 0.0083 M, ionic strength 0.025 M, conc. 1.44%","Clear, thick, stiffer gel"
same,Appearance,"[2]; CaCl2 0.01 M, ionic strength 0.03 M, conc. 1.43%","Clear, thick, stiffer gel"
same,Appearance,"[2]; CaCl2 0.0117 M, ionic strength 0.035 M, conc. 1.41%","Clear, thick, stiffer gel"
same,Appearance,"[2]; CaCl2 0.0133 M, ionic strength 0.04 M, conc. 1.40%","Slightly cloudy, thick, stiffer gel"
same,Appearance,"[2]; CaCl2 0.015 M, ionic strength 0.045 M, conc. 1.39%","Slightly cloudy, thick, stiffer gel"
same,Appearance,"[2]; CaCl2 0.0167 M, ionic strength 0.05 M, conc. 1.37%","Slightly cloudy, brittle gel"
same,Appearance,"[2]; CaCl2 0.0183 M, ionic strength 0.055 M, conc. 1.36%","Cloudy, phase-separated"
same,Appearance,"[2]; KCl 0 M, ionic strength 0 M, conc. 1.5%","Clear, thick gel"
same,Appearance,"[2]; KCl 0.005 M, ionic strength 0.005 M, conc. 1.46%","Clear, thick, stiffer gel"
same,Appearance,"[2]; KCl 0.01 M, ionic strength 0.01 M, conc. 1.43%","Clear, thick, stiffer gel"
same,Appearance,"[2]; KCl 0.015 M, ionic strength 0.015 M, conc. 1.39%","Clear, thick, stiffer gel"
same,Appearance,"[2]; KCl 0.02 M, ionic strength 0.02 M, conc. 1.35%","Clear, thick, stiffer gel"
same,Appearance,"[2]; KCl 0.025 M, ionic strength 0.025 M, conc. 1.31%","Clear, thick, stiffer gel"
same,Appearance,"[2]; KCl 0.03 M, ionic strength 0.03 M, conc. 1.27%","Clear, thick, stiffer gel"
same,Appearance,"[2]; KCl 0.035 M, ionic strength 0.035 M, conc. 1.24%","Slightly cloudy, brittle gel"
same,Appearance,"[2]; KCl 0.04 M, ionic strength 0.04 M, conc. 1.2%","Slightly cloudy, brittle"
same,Appearance,"[2]; KCl 0.045 M, ionic strength 0.045 M, conc. 1.16%","Cloudy, phase-separated"
same,Appearance,"[2]; MgCl2 0 M, ionic strength 0 M, conc. 1.5%","Clear, thick gel"
same,Appearance,"[2]; MgCl2 0.005 M, ionic strength 0.015 M, conc. 1.46%","Clear, thick, stiffer gel"
same,Appearance,"[2]; MgCl2 0.0067 M, ionic strength 0.02 M, conc. 1.45%","Clear, thick, stiffer gel"
same,Appearance,"[2]; MgCl2 0.0083 M, ionic strength 0.025 M, conc. 1.44%","Clear, thick, stiffer gel"
same,Appearance,"[2]; MgCl2 0.01 M, ionic strength 0.03 M, conc. 1.43%","Clear, thick, stiffer gel"
same,Appearance,"[2]; MgCl2 0.0117 M, ionic strength 0.035 M, conc. 1.41%","Clear, thick, stiffer gel"
same,Appearance,"[2]; MgCl2 0.0133 M, ionic strength 0.04 M, conc. 1.40%","Slightly cloudy, thick, stiffer gel"
same,Appearance,"[2]; MgCl2 0.015 M, ionic strength 0.045 M, conc. 1.39%","Slightly cloudy, stiffer gel"
same,Appearance,"[2]; MgCl2 0.0167 M, ionic strength 0.05 M, conc. 1.37%","Slightly cloudy, brittle gel"
same,Appearance,"[2]; MgCl2 0.0183 M, ionic strength 0.055 M, conc. 1.36%","Cloudy, phase-separated"
same,Appearance,"[2]; NaCl 0 M, ionic strength 0 M, conc. 1.5%","Clear, thick gel"
same,Appearance,"[2]; NaCl 0.005 M, ionic strength 0.005 M, conc. 1.46%","Clear, thick, stiffer gel"
same,Appearance,"[2]; NaCl 0.01 M, ionic strength 0.01 M, conc. 1.43%","Clear, thick, stiffer gel"
same,Appearance,"[2]; NaCl 0.015 M, ionic strength 0.015 M, conc. 1.39%","Clear, thick, stiffer gel"
same,Appearance,"[2]; NaCl 0.02 M, ionic strength 0.02 M, conc. 1.35%","Clear, thick, stiffer gel"
same,Appearance,"[2]; NaCl 0.025 M, ionic strength 0.025 M, conc. 1.31%","Clear, thick, stiffer gel"
same,Appearance,"[2]; NaCl 0.03 M, ionic strength 0.03 M, conc. 1.27%","Slightly cloudy, thick, stiffer gel"
same,Appearance,"[2]; NaCl 0.035 M, ionic strength 0.035 M, conc. 1.24%","Slightly cloudy, brittle gel"
same,Appearance,"[2]; NaCl 0.04 M, ionic strength 0.04 M, conc. 1.2%","Cloudy, phase-separated"
same,"salt ionic strength increase that did not change the clear color, while apparent stiffness increased","[2]; depending on different salts, 1.5% peptide solutions",0.025˜0.035 M
same,pH level above which the peptide solution began phase separation becoming cloudy,[3],> 3.7
same,rheological properties of solutions at pH 3.4,"[3]; pH adjusted vs not adjusted, KLD12 1%, IEIK13 1%, PuraMatrix 1% and 2.5%",higher
